The term Kd denotes a measure of binding affinity in units of concentration.

The values below come from publication PMC5749160, “Disruption of an RNA-binding hinge region abolishes LHP1-mediated epigenetic repression”.

For the series, the target named is T1, GST-LHP1 (Arabidopsis thaliana (Col-0 cDNA), UniProt Q946J8 1-445).
T1 sequence: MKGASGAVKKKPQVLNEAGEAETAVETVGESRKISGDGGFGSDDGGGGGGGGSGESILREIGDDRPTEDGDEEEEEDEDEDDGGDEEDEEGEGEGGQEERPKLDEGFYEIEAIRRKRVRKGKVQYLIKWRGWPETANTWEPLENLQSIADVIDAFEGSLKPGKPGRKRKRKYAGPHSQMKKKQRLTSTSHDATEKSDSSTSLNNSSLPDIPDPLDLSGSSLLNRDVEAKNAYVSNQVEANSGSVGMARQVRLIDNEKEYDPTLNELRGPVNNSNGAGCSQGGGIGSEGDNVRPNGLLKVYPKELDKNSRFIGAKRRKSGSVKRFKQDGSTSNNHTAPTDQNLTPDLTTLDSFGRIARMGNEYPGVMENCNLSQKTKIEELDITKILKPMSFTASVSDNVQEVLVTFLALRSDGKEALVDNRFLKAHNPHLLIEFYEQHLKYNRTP
The experiment in a line: EMSA; EMSA: 20 mM HEPES-KOH pH 7.5, 100 mM KCl, 0.05% NP-40, 10 nM Cy5 probe (1 uL of 100 nM + 9 uL protein), 30 min room temperature; 1.6% TBE-agarose gel. Particulars: protein: recombinant; tags: N-terminal GST (pGEX-4T-1); label: 5' Cy5; single-stranded. For orientation: In EMSA bound probe runs differently from free probe, usually more slowly.

Regarding CUCCUCCGGCGAUAAGUACGCCUUUUCCUUACCUGGGUUU (ssRNA) [FLC 40-nt ssRNA], the Kd is approximately 200 nM.
